Laboratory results published in patent US7592163B2 (The Board of Trustees of the University of Illinois, priority 2004, dated 2009).

Assays:
[1] = biological target: T1, N. crassa XR (Neurospora crassa, UniProt Q7SD67); experiment: Kinetic analysis of N. crassa XR: initial rates, NAD(P)H consumption at 340 nm, with cofactors and sugar substrates; assay type: biochemical; details: for acts as substrate for N. crassa XR: NADPH as the cofactor; for fold difference in catalytic efficiency (kcat/KM) between NADPH and NADH: NADPH favoured over NADH; for kcat: xylose reduction with the named coenzyme, 25° C., 50 mM MOPS pH 6.3
T1 sequence (Q7SD67 1-322): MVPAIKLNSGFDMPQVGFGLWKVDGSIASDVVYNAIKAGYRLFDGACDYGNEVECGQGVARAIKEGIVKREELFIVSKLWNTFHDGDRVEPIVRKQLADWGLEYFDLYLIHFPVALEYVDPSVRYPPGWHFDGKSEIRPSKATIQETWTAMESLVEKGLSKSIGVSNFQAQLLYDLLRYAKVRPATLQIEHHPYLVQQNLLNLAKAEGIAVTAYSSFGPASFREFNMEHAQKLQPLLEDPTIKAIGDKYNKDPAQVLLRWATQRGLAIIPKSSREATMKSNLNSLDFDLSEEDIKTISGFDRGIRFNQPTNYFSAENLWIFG
Description: Michaelis-Menten constants (KM) were determined for both cofactors as well as for xylose with either cofactor. The maximum turnover number (kcat) was also determined with both cofactors. […] Xylose concentrations were varied from 10 to 250 mM while either cofactor concentration was held at 160 μM.
Analysis of substrate specificity.
Kinetic Analysis. […] All initial rate assays were carried out at 25° C. in 50 mM MOPS pH 6.3 using a Varian Cary 100 Bio UV-visible spectrophotometer unless otherwise noted. The reaction was initiated by addition of 0.1-1 μg of XR. […] The data were then converted to turnover number and fitted by non-linear regression analysis to the Michaelis-Menten equation using Origin 5.0. […] All assays were performed in duplicate or triplicate at least two times. The kinetic data presented represent averages of statistically relevant measurements and with their associated standard deviations.

[2] = literature, cited from earlier work; for kcat / Km: with NADPH as cofactor; for Km: read-out: KM, Xylose
[3] = substrate: OC1OC[C@@H](O)[C@H](O)[C@H]1O; experiment: Kinetic analysis of N. crassa XR: initial rates, NAD(P)H consumption at 340 nm, with cofactors and sugar substrates; assay type: biochemical, Neurospora crassa; details: other: KM of the sugar substrate, NADPH as cofactor, 25° C., 50 mM MOPS pH 6.3
[4] = substrate: OC1OC[C@@H](O)[C@@H](O)[C@H]1O; experiment: as above; assay type: biochemical, Neurospora crassa; details: other: KM of the sugar substrate, NADPH as cofactor, 25° C., 50 mM MOPS pH 6.3
[5] = substrate: OC1OC[C@H](O)[C@H](O)[C@H]1O; experiment: as above; assay type: biochemical, Neurospora crassa; details: other: KM of the sugar substrate, NADPH as cofactor, 25° C., 50 mM MOPS pH 6.3

For `OC[C@H]1O[C@@](CO)(O[C@H]2O[C@H](CO)[C@@H](O)[C@H](O)[C@H]2O)[C@@H](O)[C@@H]1O` [sucrose], the “acts as substrate for N. crassa XR” value [1] was “did not act as substrates”.

With “Nicotinamide adenine dinucleotide reduced [NADH]” the “fold difference in catalytic efficiency (kcat/KM) between NADPH and NADH” value [1] was 100 fold and the kcat [1] was 5.17 ± 0.167 s⁻¹.

For `O=C(CO)[C@@H](O)[C@H](O)[C@H](O)CO` [D-fructose], the “acts as substrate for N. crassa XR” value [1] was “did not act as substrates”.

For “Nicotinamide adenine dinucleotide phosphate reduced [NADPH]”, the “fold difference in catalytic efficiency (kcat/KM) between NADPH and NADH” value [1] was 100 fold and the kcat [1] was 60 ± 1.67 s⁻¹.

For `O=C[C@@H](O)[C@H](O)[C@H](O)CO` [D-arabinose], the “acts as substrate for N. crassa XR” value [1] was “did not act as substrates” and the “acts as substrate for N. crassa XR” value ([1]; listed as D-arabinos) was “activity”.

B1: S. cerevisiae: xylose reductase from S. cerevisiae, literature (protein, UniProt P38715 2-327, looked up)
NADPH-dependent aldose …: SSLVTLNNGLKMPLVGLGCWKIDKKVCANQIYEAIKLGYRLFDGACDYGNEKEVGEGIRKAISEGLVSRKDIFVVSKLWNNFHHPDHVKLALKKTLSDMGLDYLDLYYIHFPIAFKYVPFEEKYPPGFYTGADDEKKGHITEAHVPIIDTYRALEECVDEGLIKSIGVSNFQGSLIQDLLRGCRIKPVALQIEHHPYLTQEHLVEFCKLHDIQVVAYSSFGPQSFIEMDLQLAKTTPTLFENDVIKKVSQNHPGSTTSQVLLRWATQRGIAVIPKSSKKERLLGNLEIEKKFTLTEQELKDISALNANIRFNDPWTWLDGKFPTFA
For B1, the kcat [2] is listed as 14.3 s⁻¹ and the Km [2] is listed as 13.6 mM.

B2: N. crassa XR (Neurospora crassa OR74A) (protein)
chain: T1 sequence (Q7SD67 1-322)
Work on B2 yielded a Km [3] of 34 mM, a kcat [3] of 60 ± 3.33 s⁻¹ and a kcat/Km [3] of 1830 M⁻¹ s⁻¹. The Km [4] was 70 ± 10 mM, the kcat/Km [4] was 750 M⁻¹ s⁻¹ and the Km [5] was 40 ± 10 mM. It also gave a kcat [5] of 30 ± 1.67 s⁻¹ and a kcat/Km [5] of 750 M⁻¹ s⁻¹.

B3: C. tenuis: xylose reductase from Candida tenuis, literature (protein, UniProt O74237 1-322, looked up)
NAD(P)H-dependent D-xylose …: MSASIPDIKLSSGHLMPSIGFGCWKLANATAGEQVYQAIKAGYRLFDGAEDYGNEKEVGDGVKRAIDEGLVKREEIFLTSKLWNNYHDPKNVETALNKTLADLKVDYVDLFLIHFPIAFKFVPIEEKYPPGFYCGDGNNFVYEDVPILETWKALEKLVAAGKIKSIGVSNFPGALLLDLLRGATIKPAVLQVEHHPYLQQPKLIEFAQKAGVTITAYSSFGPQSFVEMNQGRALNTPTLFAHDTIKAIAAKYNKTPAEVLLRWAAQRGIAVIPKSNLPERLVQNRSFNTFDLTKEDFEEIAKLDIGLRFNDPWDWDNIPIFV
In the case of B3, the “NADH-dependent XR kcat” value ([2]; NADH as cofactor) is given as 18.33 s⁻¹, the “Optimal pH” value [2] is given as 6.0 and the kcat [2] is given as 21.67 s⁻¹. The Km [2] was 72 mM.

B4: P. stipitus: NADPH-dependent xylose reductase from P. stipitus, literature (protein, UniProt P31867 1-318, looked up)
NAD(P)H-dependent D-xylose …: MPSIKLNSGYDMPAVGFGCWKVDVDTCSEQIYRAIKTGYRLFDGAEDYANEKLVGAGVKKAIDEGIVKREDLFLTSKLWNNYHHPDNVEKALNRTLSDLQVDYVDLFLIHFPVTFKFVPLEEKYPPGFYCGKGDNFDYEDVPILETWKALEKLVKAGKIRSIGVSNFPGALLLDLLRGATIKPSVLQVEHHPYLQQPRLIEFAQSRGIAVTAYSSFGPQSFVELNQGRALNTSPLFENETIKAIAAKHGKSPAQVLLRWSSQRGIAIIPKSNTVPRLLENKDVNSFDLDEQDFADIAKLDINLRFNDPWDWDKIPIFV
For B4, the “Optimal pH” value [2] is given as 6.0, the kcat [2] is given as 25 s⁻¹ and the Km [2] is given as 42 mM.
